Drawing on article doi:10.1101/2025.07.31.667872 (bioRxiv, 2025), this text covers Kd for one molecule.

Holding throughout (details): both partners purified
Test [1] deals with T1, RPN13 Pru (1–150), reduced (UniProt Q16186 1-150).
T1 construct: Kept in reducing ITC buffer (10 mM βME); also called redu RPN13^Pru; RPN13 (1–150); source: E. coli BL21(DE3) pLysS, purified (Talon resin, PreScission elution, Superdex 75); not shown: His6, N-terminal, cleaved
The test is described as follows: ITC; RPN2 (940–953) in the syringe (156 μM), RPN13 Pru in the cell (15.6 μM); 25 °C, reducing buffer: 20 mM sodium phosphate, 50 mM NaCl, 10 mM βME, pH 6.0; one-site fit. (Isothermal titration calorimetry measures the heat released or taken up as one component is titrated into another.)

Test [2] concerns the target T2, oxi-RPN13^Pru following incubation with 3-fold molar excess TXNL1^Trx (UniProt Q16186 1-150, oxidized with 0.05 % H2O2, then treated with TXNL1 Trx).
T2 construct: RPN13 Pru domain, residues 1-150; source: E. coli BL21(DE3) pLysS, purified; not shown: His6, N-terminal, cleaved
Nature of the test: ITC; RPN2 (940–953) in the syringe (205.7 or 160 μM), RPN13 Pru in the cell (20.57 or 16 μM); 25 °C, non-reducing buffer: 20 mM sodium phosphate, 50 mM NaCl, pH 6.0; one-site fit.

For test [3], the target named is T3, RPN13 Pru (1–150), oxidized (UniProt Q16186 1-150, oxidized with 0.05 % H2O2; the oxidized residues are not given).
T3 construct: RPN13 Pru domain, residues 1-150; also called oxi-RPN13^Pru; not shown: His6, N-terminal, cleaved
T3 sequence (Q16186 1-150): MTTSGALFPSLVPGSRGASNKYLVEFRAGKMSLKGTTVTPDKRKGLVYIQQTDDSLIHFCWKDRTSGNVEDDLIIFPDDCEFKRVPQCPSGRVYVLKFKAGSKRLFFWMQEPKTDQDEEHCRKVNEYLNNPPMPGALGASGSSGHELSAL
The test is described as above.

T2 sequence (Q16186 1-150): as above
T1 sequence (Q16186 1-150): as above

B1: RPN2 peptide (940–953) (peptide, UniProt Q99460 940-953, looked up)
chain: QEPEPPEPFEYIDD
notes: The construct has a PreScission site after GST, but the methods tell only of elution as the GST fusion; ITC and NMR speak of the RPN2 peptide; also called RPN2 (940–953); RPN2^940–953
The Kd is the concentration at which binding is half-saturated. For the molecule B1, the figures for the Kd in test [1], in test [2] and in test [3] were 0.0124 ± 0.00529 µM, 0.0189 ± 0.0057 µM and 0.04 ± 0.0153 µM, respectively.
